According to the supplement of paper PMC10065799, “High-throughput profiling of sequence recognition by tyrosine kinases and SH2 domains using bacterial peptide display” (eLife, 2023):

Key:
AncSZ = test: phosphorylation enrichment, bacterial display (enrichment ratio); higher = better substrate or ligand; peptides without Tyr show the background
EPHB1 = EPHB1 (UniProt P54762); test: as above
EPHB2 = EPHB2 (UniProt P29323); test: as above
FGFR1 = FGFR1 (UniProt P11362); test: as above
FGFR3 = FGFR3 (UniProt P22607); test: as above
Fer (mouse) = test: as above
Fes = Fes (UniProt P07332); test: as above
Fes, sequence (P07332 whole entry, looked up): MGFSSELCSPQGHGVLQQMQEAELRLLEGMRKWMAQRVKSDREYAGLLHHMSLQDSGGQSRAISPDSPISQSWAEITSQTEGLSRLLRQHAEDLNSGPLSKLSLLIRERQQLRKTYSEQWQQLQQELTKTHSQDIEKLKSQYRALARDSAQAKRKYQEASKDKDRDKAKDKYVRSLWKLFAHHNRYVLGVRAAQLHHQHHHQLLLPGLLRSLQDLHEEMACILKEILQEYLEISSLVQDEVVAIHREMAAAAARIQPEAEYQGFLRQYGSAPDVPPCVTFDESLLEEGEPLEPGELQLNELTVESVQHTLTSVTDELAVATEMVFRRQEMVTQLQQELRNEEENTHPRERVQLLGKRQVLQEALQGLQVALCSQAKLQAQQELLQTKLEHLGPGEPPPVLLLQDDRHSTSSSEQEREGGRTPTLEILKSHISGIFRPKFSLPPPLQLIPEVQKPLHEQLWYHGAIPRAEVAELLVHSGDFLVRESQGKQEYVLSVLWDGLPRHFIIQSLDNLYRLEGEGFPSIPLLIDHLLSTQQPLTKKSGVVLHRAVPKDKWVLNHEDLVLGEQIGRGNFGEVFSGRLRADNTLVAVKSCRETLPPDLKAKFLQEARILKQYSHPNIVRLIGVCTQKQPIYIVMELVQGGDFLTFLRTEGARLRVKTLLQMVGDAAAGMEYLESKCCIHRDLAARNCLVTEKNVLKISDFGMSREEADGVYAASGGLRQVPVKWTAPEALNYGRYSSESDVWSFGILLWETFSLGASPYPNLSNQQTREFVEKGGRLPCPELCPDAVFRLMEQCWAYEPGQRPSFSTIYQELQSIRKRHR

Fyn = Fyn (UniProt P06241); test: as above
Fyn, sequence (P06241 whole entry, looked up): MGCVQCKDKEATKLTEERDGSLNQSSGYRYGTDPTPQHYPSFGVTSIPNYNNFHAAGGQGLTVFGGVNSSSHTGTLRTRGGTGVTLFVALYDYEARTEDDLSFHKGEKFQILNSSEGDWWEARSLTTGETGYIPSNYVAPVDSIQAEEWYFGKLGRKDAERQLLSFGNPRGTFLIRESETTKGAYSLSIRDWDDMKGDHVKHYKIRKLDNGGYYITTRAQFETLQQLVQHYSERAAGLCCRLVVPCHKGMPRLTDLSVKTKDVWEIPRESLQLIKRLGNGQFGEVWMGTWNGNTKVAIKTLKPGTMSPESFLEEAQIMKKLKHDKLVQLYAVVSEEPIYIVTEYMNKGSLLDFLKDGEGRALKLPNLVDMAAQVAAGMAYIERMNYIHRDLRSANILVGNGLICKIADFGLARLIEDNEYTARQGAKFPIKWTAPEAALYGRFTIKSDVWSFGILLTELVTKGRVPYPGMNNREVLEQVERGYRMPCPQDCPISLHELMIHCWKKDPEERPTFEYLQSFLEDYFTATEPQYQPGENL

Hck = Hck (UniProt P08631); test: as above
Hck, sequence (P08631 whole entry, looked up): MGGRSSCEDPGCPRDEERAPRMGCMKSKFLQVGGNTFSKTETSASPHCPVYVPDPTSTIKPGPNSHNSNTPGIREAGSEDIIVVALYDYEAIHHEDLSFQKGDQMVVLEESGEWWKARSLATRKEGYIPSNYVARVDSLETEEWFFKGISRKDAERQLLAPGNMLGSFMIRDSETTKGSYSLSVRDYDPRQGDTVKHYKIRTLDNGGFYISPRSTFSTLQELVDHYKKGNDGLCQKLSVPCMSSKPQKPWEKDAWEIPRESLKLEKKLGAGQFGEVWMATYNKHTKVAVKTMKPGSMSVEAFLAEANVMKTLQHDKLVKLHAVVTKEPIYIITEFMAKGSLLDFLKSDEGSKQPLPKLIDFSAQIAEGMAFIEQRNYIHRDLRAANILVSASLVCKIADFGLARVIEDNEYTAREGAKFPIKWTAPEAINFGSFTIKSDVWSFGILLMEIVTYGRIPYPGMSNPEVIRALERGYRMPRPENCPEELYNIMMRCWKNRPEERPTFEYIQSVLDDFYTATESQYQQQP

Jak2 = Jak2 (UniProt O60674); test: as above
MERTK = MERTK (UniProt Q12866); test: as above
c-Abl (mouse) = test: as above
c-Src = test: as above
Grb2 SH2 = Grb2 SH2 (UniProt P62993); test: SH2 binding enrichment of the phosphorylated peptide, bacterial display (enrichment ratio); higher = better substrate or ligand; peptides without Tyr show the background
SHP2-C SH2 = test: as above
c-Src SH2 = test: as above
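Throughout, for SH2 binding enrichment of the phosphorylated peptide, bacterial display: peptide library displayed on the E. coli surface as eCPX fusions, selected cells deep-sequenced, score is each peptide's frequency after selection divided by its frequency in the input.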
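Throughout, for phosphorylation enrichment, bacterial display: 11-residue human phosphosite peptides and single-mutation variants displayed on the E. coli surface, counted by deep sequencing, each peptide's frequency after selection divided by its frequency in the unselected input library; frequency after pTyr selection over input frequency; kinase dosed for 20-30% of maximal phosphorylation in three min.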

FGFR1, sequence (P11362 whole entry, looked up): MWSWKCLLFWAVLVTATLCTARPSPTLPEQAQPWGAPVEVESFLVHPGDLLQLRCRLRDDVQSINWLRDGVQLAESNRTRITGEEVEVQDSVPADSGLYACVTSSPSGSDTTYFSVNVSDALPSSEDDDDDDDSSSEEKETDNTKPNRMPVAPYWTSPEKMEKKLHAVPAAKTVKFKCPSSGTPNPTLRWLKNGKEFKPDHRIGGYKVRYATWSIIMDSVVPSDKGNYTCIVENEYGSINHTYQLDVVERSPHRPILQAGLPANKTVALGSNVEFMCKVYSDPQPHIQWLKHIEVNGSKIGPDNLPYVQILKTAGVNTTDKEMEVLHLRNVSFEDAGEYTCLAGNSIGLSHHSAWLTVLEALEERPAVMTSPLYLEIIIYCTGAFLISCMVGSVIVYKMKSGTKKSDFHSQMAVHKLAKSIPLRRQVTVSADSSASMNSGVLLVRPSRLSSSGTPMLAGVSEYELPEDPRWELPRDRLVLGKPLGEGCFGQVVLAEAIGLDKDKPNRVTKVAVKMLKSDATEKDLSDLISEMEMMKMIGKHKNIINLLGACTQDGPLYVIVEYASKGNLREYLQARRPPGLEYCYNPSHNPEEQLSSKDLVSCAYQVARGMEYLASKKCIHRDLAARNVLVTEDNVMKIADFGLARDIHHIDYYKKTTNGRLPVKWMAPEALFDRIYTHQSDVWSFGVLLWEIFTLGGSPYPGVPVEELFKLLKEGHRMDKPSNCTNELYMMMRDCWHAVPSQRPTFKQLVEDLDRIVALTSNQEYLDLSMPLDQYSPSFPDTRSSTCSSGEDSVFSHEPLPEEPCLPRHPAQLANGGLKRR
EPHB1, sequence (P54762 whole entry, looked up): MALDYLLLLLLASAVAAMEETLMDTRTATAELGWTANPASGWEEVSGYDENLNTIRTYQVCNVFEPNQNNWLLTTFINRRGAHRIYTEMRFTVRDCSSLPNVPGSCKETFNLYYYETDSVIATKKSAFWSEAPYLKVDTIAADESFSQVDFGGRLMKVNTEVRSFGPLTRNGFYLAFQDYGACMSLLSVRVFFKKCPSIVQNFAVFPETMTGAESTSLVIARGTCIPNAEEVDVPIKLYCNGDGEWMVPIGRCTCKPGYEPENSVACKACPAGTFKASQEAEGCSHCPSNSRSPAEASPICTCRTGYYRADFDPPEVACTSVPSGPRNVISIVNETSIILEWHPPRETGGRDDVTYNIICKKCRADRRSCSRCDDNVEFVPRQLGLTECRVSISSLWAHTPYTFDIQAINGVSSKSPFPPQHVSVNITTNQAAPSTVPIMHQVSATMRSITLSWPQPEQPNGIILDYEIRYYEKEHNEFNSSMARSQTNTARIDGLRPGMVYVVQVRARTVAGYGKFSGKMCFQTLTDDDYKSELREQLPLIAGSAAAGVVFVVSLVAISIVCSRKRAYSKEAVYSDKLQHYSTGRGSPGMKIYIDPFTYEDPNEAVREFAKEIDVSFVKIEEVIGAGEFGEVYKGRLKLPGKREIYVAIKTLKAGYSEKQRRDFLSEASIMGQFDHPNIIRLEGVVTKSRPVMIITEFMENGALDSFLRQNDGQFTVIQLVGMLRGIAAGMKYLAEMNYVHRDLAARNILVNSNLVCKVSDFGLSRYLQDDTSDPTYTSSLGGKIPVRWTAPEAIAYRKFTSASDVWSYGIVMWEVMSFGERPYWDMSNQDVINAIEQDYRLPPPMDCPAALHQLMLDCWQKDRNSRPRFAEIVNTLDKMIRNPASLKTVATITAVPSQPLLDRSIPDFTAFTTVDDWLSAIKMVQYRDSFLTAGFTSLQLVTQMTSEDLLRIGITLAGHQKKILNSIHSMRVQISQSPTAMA
EPHB2, sequence (P29323 whole entry, looked up): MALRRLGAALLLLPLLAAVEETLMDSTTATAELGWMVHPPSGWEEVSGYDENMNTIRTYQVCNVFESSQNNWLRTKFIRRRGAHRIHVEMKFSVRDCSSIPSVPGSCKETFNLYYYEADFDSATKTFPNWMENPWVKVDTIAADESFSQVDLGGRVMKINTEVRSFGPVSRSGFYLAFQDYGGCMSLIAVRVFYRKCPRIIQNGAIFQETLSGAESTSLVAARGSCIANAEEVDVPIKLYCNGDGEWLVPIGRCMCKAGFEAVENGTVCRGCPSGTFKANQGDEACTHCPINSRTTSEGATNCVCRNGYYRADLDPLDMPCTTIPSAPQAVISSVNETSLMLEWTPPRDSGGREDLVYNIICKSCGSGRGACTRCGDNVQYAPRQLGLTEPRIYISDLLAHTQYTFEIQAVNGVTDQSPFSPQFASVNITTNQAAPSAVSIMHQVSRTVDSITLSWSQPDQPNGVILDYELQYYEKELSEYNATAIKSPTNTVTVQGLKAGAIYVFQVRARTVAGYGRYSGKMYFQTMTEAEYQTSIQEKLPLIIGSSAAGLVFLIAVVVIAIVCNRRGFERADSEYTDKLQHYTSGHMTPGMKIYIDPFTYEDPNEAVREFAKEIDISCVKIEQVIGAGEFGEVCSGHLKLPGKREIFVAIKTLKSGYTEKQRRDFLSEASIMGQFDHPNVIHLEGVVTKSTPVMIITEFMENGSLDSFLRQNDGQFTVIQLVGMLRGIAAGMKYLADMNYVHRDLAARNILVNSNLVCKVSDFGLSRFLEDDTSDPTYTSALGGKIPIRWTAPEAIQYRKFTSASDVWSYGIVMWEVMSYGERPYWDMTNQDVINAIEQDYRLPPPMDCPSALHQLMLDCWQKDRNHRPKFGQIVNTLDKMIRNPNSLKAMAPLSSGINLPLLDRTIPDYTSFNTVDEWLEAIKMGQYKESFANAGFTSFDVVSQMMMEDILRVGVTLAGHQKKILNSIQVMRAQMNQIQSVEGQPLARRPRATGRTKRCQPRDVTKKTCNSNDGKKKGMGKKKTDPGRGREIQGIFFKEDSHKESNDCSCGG

Sequence | SH2 binding enrichment (Grb2 SH2) | SH2 binding enrichment (SHP2-C SH2) | SH2 binding enrichment (c-Src SH2) | phosphorylation enrichment (AncSZ) | phosphorylation enrichment (EPHB1) | phosphorylation enrichment (EPHB2) | phosphorylation enrichment (FGFR1) | phosphorylation enrichment (FGFR3) | phosphorylation enrichment (Fer (mouse)) | phosphorylation enrichment (Fes) | phosphorylation enrichment (Fyn) | phosphorylation enrichment (Hck) | phosphorylation enrichment (Jak2) | phosphorylation enrichment (MERTK) | phosphorylation enrichment (c-Abl (mouse)) | phosphorylation enrichment (c-Src)
LAVVDYIRRQK [ATM_Y1915_M1916I] | 0.441 | 0.461 | 0.338 | 1.06 | 0.918 | 1.42 | 0.791 | 0.92 | 0.839 | 1.24 | 0.649 | 0.749 | 0.855 | 0.863 | 1.37 | 1.21
LDAFIYDAALL [GRIN2A_Y730_V734L] | 0.735 | 0.546 | 0.581 | 1.44 | 2.23 | 2.32 | 0.55 | 0.902 | 14.9 | 1.86 | 8.97 | 7.57 | 1.33 | 2.28 | 4.39 | 7.16
LDPMVYMNDKS [PTK2B_Y834] | 2.36 | 0.792 | 1.01 | 1.09 | 0.727 | 0.595 | 0.727 | 0.586 | 0.678 | 1.28 | 0.55 | 0.386 | 1.25 | 0.648 | 0.843 | 0.669
LEIETYRRLLD [KRT12_Y429] | 0.762 | 0.602 | 0.473 | 0.854 | 0.616 | 0.549 | 0.45 | 0.627 | 0.471 | 1.03 | 0.468 | 0.497 | 1.01 | 0.367 | 0.656 | 0.369
LGLDEYLDKLK [FMNL2_Y352] | 0.78 | 0.662 | 0.588 | 1.47 | 0.716 | 0.816 | 0.536 | 0.971 | 0.933 | 1.27 | 0.394 | 0.587 | 1.71 | 0.569 | 0.982 | 0.375

More lines, main results first:

SH2 binding enrichment (Grb2 SH2) | SH2 binding enrichment (SHP2-C SH2) | SH2 binding enrichment (c-Src SH2) | Sequence | phosphorylation enrichment (AncSZ) | phosphorylation enrichment (EPHB1) | phosphorylation enrichment (EPHB2) | phosphorylation enrichment (FGFR1) | phosphorylation enrichment (FGFR3) | phosphorylation enrichment (Fer (mouse)) | phosphorylation enrichment (Fes) | phosphorylation enrichment (Fyn) | phosphorylation enrichment (Hck) | phosphorylation enrichment (Jak2) | phosphorylation enrichment (MERTK) | phosphorylation enrichment (c-Abl (mouse)) | phosphorylation enrichment (c-Src)
0.777 | 0.793 | 0.486 | LEAVSYSSRFA [RNLS_Y190_YF] | 0.718 | 0.369 | 0.359 | 0.432 | 0.496 | 0.408 | 0.773 | 0.474 | 0.463 | 0.564 | 0.399 | 0.596 | 0.435
0.613 | 0.48 | 0.322 | LECEWYKNGVK [TTN_Y2112_P2107L] | 2.15 | 1.36 | 0.923 | 0.744 | 1.01 | 0.771 | 2.16 | 0.619 | 0.931 | 1.39 | 0.921 | 1.16 | 0.576
0.861 | 0.855 | 0.793 | LFLACYFIGGG [UBD_Y161_C162F] | 1.16 | 0.773 | 0.612 | 0.453 | 1.05 | 0.533 | 1.77 | 0.502 | 0.55 | 1.35 | 0.45 | 1.03 | 0.647
